Experimental findings from US20250134988A1 are described below.

One may read the EC50 (read off the curve) as the concentration needed to bring the measured effect to its halfway point. The low end stands for higher potency in that assay, the high end for lower potency in that assay.

In the assay the target is CoV2_5P prefusion-stabilized spike protein (SARS-CoV-2) (UniProt P0DTC2). The assay is described as follows: ELISA. For orientation: ELISA stands for enzyme-linked immunosorbent assay.

As to CR3022 (antibody), the concentration for a half-maximal effect (EC50 (read off the curve)) is 0.02 µg/mL.
